{"source": "paper PMC8932913", "molecular_target": "recombinant Hbl B’ of B. cereus strain F837/76 (Bacillus cereus strain F837/76)", "experiment": "SPR; Biacore S200; rHbl B’ amine-coupled (350 RU) on a CM5 chip; rHbl L1, L2 or B injected at 7.8125 nM to 2 µM, 30 µl/min, 20°C; running buffer PBS, 1 mM DTT, 0.005% Tween 20; 1:1 binding model; three experiments", "data": [{"substance": "recombinant Hbl L1 (natural protein)", "values": [{"measurement": "Kd", "result": 0.131, "unit": "µM"}]}]}
